This experiment has as its target amyloid precursor protein (APP), endogenous mouse (mouse (endogenous in mouse brain and primary neurons)). The experiment is described as follows: co-IP.

B1: Disabled1 (Dab1), endogenous mouse (natural protein)
chain: MSTETELQVAVKTSAKKDSRKKGQDRSEATLIKRFKGEGVRYKAKLIGIDEVSAARGDKLCQDSMMKLKGVVAGARSKGEHKQKIFLTISFGGIKIFDEKTGALQHHHAVHEISYIAKDITDHRAFGYVCGKEGNHRFVAIKTAQAAEPVILDLRDLFQLIYELKQREELEKKAQKDKQCEQAVYQTILEEDVEDPVYQYIVFEAGHEPIRDPETEENIYQVPTSQKKEGVYDVPKSQPNSQPLEDFESRFAAATPNRNLSMDFDELLEATKVSAVTQLELFGDMSTPPDITSPPTPATPGDAFLPSSSQTLPGSADVFGSMSFGTAAVPSGYVAMGAVLPSFWGQQPLVQQQIAMGAQPPVAQVIPGAQPIAWGQPGLFPATQQAWPTVAGQFPPAAFMPTQTVMPLAAAMFQGPLTPLATVPGTNDSARSSPQSDKPRQKMGKESFKDFQMVQPPPVPSRKPDQPSLTCTSEAFSSYFNKVGVAQDTDDCDDFDISQLNLTPVTSTTPSTNSPPTPAPRQSSPSKSSASHVSDPTADDIFEEGFESPSKSEEQEAPDGSQASSTSDPFGEPSGEPSGDNISPQDGS
As for B1, the decrease in APP-Dab1 co-precipitation against control, 20 min of Reelin was found to be 89 % decrease; the decrease in APP-Dab1 co-precipitation against control, 1 hr of Reelin was found to be 87 % decrease; the decrease in APP-Dab1 co-precipitation against control, 4 hrs of Reelin was found to be 67 % decrease.

These data come from article PMC3155659.
